From patent US9869668B2, “PDGF as a biomarker for predicting resistance or effect of c-Met targeting drugs” (SAMSUNG ELECTRONICS CO., LTD., priority 2014, dated 2018)

B1: SAIT301: anti-c-Met antibody: huAbF46-H4-A1 heavy chain variable region, human IgG2 hinge and constant region, kappa light chain (antibody)
heavy: EVQLVESGGGLVQPGGSLRLSCAASGFTFTDYYMSWVRQAPGKGLEWLGFIRNKANGYTTEYSASVKGRFTISRDNSKNTLYLQMNSLRAEDTAVYYCARDNWFAYWGQGTLVTVSSASTKGPSVFPLAPCSRSTSESTAALGCLVKDYFPEPVTVSWNSGALTSGVHTFPAVLQSSGLYSLSSVVTVPSSNFGTQTYTCNVDHKPSNTKVDKTVERKCCVECPPCPAPPVAGPSVFLFPPKPKDTLMISRTPEVTCVVVDVSHEDPEVQFNWYVDGVEVHNAKTKPREEQFNSTFRVVSVLTVVHQDWLNGKEYKCKVSNKGLPAPIEKTISKTKGQPREPQVYTLPPSREEMTKNQVSLTCLVKGFYPSDIAVEWESNGQPENNYKTTPPMLDSDGSFFLYSKLTVDKSRWQQGNVFSCSVMHEALHNHYTQKSLSLSPGK
light: DIQMTQSPSSLSASVGDRVTITCKSSQSLLASGNQNNYLAWYQQKPGKAPKMLIIWASTRVSGVPSRFSGSGSGTDFTLTISSLQPEDFATYYCQQSYSRPYTFGQGTKVEIKRTVAAPSVFIFPPSDEQLKSGTASVVCLLNNFYPREAKVQWKVDNALQSGNSQESVTEQDSKDSTYSLSSTLTLSKADYEKHKVYACEVTHQGLSSPVTKSFNRGEC

Experiments:
Assay type in all cases: cell-based
[1] = test system: EBC1-SR#6 cell line (compared with EBC1 parental cell line); assay: EZ-Cytox cell viability assay, 72 hours after treatment; conditions: EBC1-SR#6 vs EBC1 parental cell line, sole treatment, FIG. 2/FIG. 3
Procedure: To examine whether the quantitative increase of PDGF protein contributes to obtaining resistance in anti-c-Met antibody resistance acquired cell line, EBC1 and EBC1-SR#6 cell lines were treated with PDGFR (PDGF Receptor) TKI (tyrosine kinase inhibitor), then the changes of cell growth inhibition were measured using EZ-Cytox Cell viability assay kit (DaeiLab Service, Seoul, Korea).
For this, each of EBC1 cells and EBC1-SR#6 cells were seeded on 96-well plate at the amount of 5000 (5×10^3) cells. […] Seventy two hours after the treatment, the number of the cells was measured by EZ-Cytox Cell viability assay kit.

EBC1-SR#6 cell lines = assay: CellTiter Glo assay confirming acquired resistance to SAIT301; conditions: resistance-acquired clones; 0-2 ug/ml; 72 hours after the antibody treatment
Procedure: EBC1 (JCRB 0820) cell lines was treated with SAIT301 for at least 2 months, with increasing the concentration of treated antibody. The concentration of SAIT301 was increased from 1 ug/ml to 10 ug/ml until a resistance is induced. To confirm the acquisition of a resistance to SAIT301, the prepared clones were treated with SAIT301 at the concentration of 0 ug/ml, 0.016 ug/ml, 0.08 ug/ml, 0.4 ug/ml, or 2 ug/ml, and 72 hours after the antibody treatment, the number of the living cells was counted by CellTiter Glo assay (Promega, G7573).
The obtained SAIT301 resistance acquired cell lines were named EBC1-SR#6.

EBC1 parent cells = assay: Responsiveness of parent cells to SAIT301 before inducing resistance
Procedure: To examine the quantitative change of PDGF when a resistance to an anti-c-Met antibody is induced, SAIT301 resistance acquired EBC1-SR#6 cell lines were prepared by repeatedly treating EBC1 (JCRB 0820) cells with SAIT301. EBC1 parent cells were all responsive to SAIT301, before inducing SAIT301 resistance. The SAIT301 resistance acquired EBC1-SR#6 cell lines were prepared as follows: […]

Molecule	chemosensitivity of EBC1-SR#6 cell line compared with EBC1 [1]	effect of antibody on number of living cells (EBC1-SR#6 cell lines)	responsiveness of cells to antibody (EBC1 parent cells)
CCN(CC)CCCCNc1ncc2cc(-c3cc(OC)cc(OC)c3)c(NC(=O)NC(C)(C)C)nc2n1 [PD173074]	not changed markedly		
B1		no effect	responsive
